The values that follow come from the RNAGym collection of RNA variant scans (doi:10.1093/molbev/msab373).

Sequences and labels used below:
B1: Azoarcus group I ribozyme (parent)
chain: GUGCCUUGCGCCGGGAAACCACGCAAGGGAUGGUGUCAAAUUCGGCGAAACCUAAGCGCCCGCCCGGGCGUAUGGCAACGCCGAGCCAAGCUUCGGCGCCUGCGCCGAUGAAGGUGUAGAGACUAGACGGCACCCACCUAAGGCAAACGCUAUGGUGAAGGCAUAGUCCAGGGAGUGGCGAAAGUCACACAAACCGG

In the data set the parent is B1. Kind of data set: reverse-splicing fitness (ratio to wild type); higher = more active; in vitro selection; Mg2+ level not given. In a few lines: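 An in vitro group I ribozyme library with randomized positions was T7-transcribed and gel-purified. In triplicate, 10 pmol RNA in EPPS pH 7.5 was reacted with 50 pmoles of a 30-nt RNA substrate for 1 h at 37 °C across several added MgCl2 levels (1–48 mM), then stopped with EDTA. Products were reverse transcribed from a substrate-complementary primer, PCR-amplified and sequenced (HiSeq 4000). Fitness is a variant's read proportion after selection over that before, normalised to wild type.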
With A111U A120C C169U U176G, the reverse-splicing fitness was found to be 0.00626.

On to A111U A120C C169U U176C, for which the reverse-splicing fitness is 0.0473.

With A111U A120C C169U U176A, the reverse-splicing fitness was 0.0322.

For the variant A111U A120G A145C C150U C169A U176C, the reverse-splicing fitness stood at 0.00998.

For A111U A120G A145C C150U C169A U176G, the reverse-splicing fitness was determined as 0.00531.

As to A111U A120G A145C C150U C169A U176A, the reverse-splicing fitness came to 0.012.

For A111U A120C C150U, the reverse-splicing fitness is 0.348.

As to A111U A120C C150G, the reverse-splicing fitness came out at 0.0482.

On to A111U A120C C150A, for which the reverse-splicing fitness turned out to be 0.0636.

For the variant A111U A120C C150G C169U, the reverse-splicing fitness was 0.02.

On to A111U A120C C150G C169G, for which the reverse-splicing fitness was found to be 0.0073.

Take A111U A120C C150G C169A: the reverse-splicing fitness was determined as 0.00861.

Regarding A111U A120G A145C C150U U176A, the reverse-splicing fitness amounted to 0.0191.

In the case of A111U A120G A145C C150U U176G, the reverse-splicing fitness turned out to be 0.00458.

Regarding A111U A120G A145C C150U U176C, the reverse-splicing fitness came out at 0.0201.

As for A111U A120C A145U C150G C169U U176C, the reverse-splicing fitness turned out to be 0.0166.

In the case of A111U A120C A145U C150G C169U U176A, the reverse-splicing fitness is 0.0117.

Take A111U A120C A145U C150G C169U U176G: the reverse-splicing fitness came to 0.00475.

Consider A111U A120G A145C C150G C169U, for which the reverse-splicing fitness stood at 0.0237.

As for A111U A120G A145C C150G C169A, the reverse-splicing fitness is 0.0154.

As to A111U A120G A145C C150G C169G, the reverse-splicing fitness was found to be 0.0237.

In the case of A111U A120C A145U C150U U176G, the reverse-splicing fitness was 0.0333.

As for A111U A120C A145U C150U U176C, the reverse-splicing fitness was found to be 0.248.

As to A111U A120C A145U C150U U176A, the reverse-splicing fitness was found to be 0.194.

Regarding A111U A120G A145U C150A C169G U176G, the reverse-splicing fitness stood at 0.00465.

For the variant A111U A120G A145U C150A C169G U176C, the reverse-splicing fitness came out at 0.0194.

Regarding A111U A120G A145U C150A C169G U176A, the reverse-splicing fitness turned out to be 0.0165.

As to A111U A120C C169G U176C, the reverse-splicing fitness came out at 0.0168.

On to A111U A120C C169G U176A, for which the reverse-splicing fitness stood at 0.0144.

Regarding A111U A120C C169G U176G, the reverse-splicing fitness is 0.00402.

As for A111U A120C A145U C150U C169G U176C, the reverse-splicing fitness is 0.0102.

For the variant A111U A120C A145U C150U C169G U176A, the reverse-splicing fitness turned out to be 0.0113.

Regarding A111U A120C A145U C150U C169G U176G, the reverse-splicing fitness is 0.00445.

Take A111U A120C C150U C169A: the reverse-splicing fitness stood at 0.0121.

A111U A120C C150U C169U: the reverse-splicing fitness was 0.0972.

Consider A111U A120C C150U C169G, for which the reverse-splicing fitness was 0.00855.

On to A111U A120G A145U C150U C169A U176C, for which the reverse-splicing fitness turned out to be 0.0207.

Take A111U A120G A145U C150U C169A U176G: the reverse-splicing fitness came to 0.00508.

With A111U A120G A145U C150U C169A U176A, the reverse-splicing fitness stood at 0.0184.

In the case of A111U A120G A145G C169U U176G, the reverse-splicing fitness was determined as 0.00601.

As to A111U A120G A145G C169U U176A, the reverse-splicing fitness came out at 0.0467.

On to A111U A120G A145G C169U U176C, for which the reverse-splicing fitness was 0.0538.

Take A111U A120G A145G C150U C169A U176C: the reverse-splicing fitness amounted to 0.0274.

For the variant A111U A120G A145G C150U C169A U176A, the reverse-splicing fitness was 0.0224.

Turning to A111U A120G A145G C150U C169A U176G, the reverse-splicing fitness amounted to 0.00525.

Regarding A111U A120C C150G U176G, the reverse-splicing fitness is 0.00366.

For the variant A111U A120C C150G U176A, the reverse-splicing fitness is 0.0104.

Take A111U A120C C150G U176C: the reverse-splicing fitness worked out at 0.0262.

As for A111U A120C C169A, the reverse-splicing fitness was 0.0124.

For the variant A111U A120C C169U, the reverse-splicing fitness stood at 0.174.

As for A111U A120C C169G, the reverse-splicing fitness turned out to be 0.0098.

With A111U A120C U176A, the reverse-splicing fitness worked out at 0.277.

For A111U A120C U176G, the reverse-splicing fitness was determined as 0.0439.

For A111U A120C U176C, the reverse-splicing fitness amounted to 0.28.

For the variant A111U A120G A145U C150G U176C, the reverse-splicing fitness was 0.0142.

On to A111U A120G A145U C150G U176G, for which the reverse-splicing fitness was found to be 0.00309.

Turning to A111U A120G A145U C150G U176A, the reverse-splicing fitness was determined as 0.00927.

Turning to A111U A120G A145G C150U C169U, the reverse-splicing fitness amounted to 0.133.

With A111U A120G A145G C150U C169G, the reverse-splicing fitness came to 0.166.

Turning to A111U A120G A145G C150U C169A, the reverse-splicing fitness came out at 0.0845.

For A111U A120G A145C C169U U176G, the reverse-splicing fitness came to 0.00629.

Take A111U A120G A145C C169U U176A: the reverse-splicing fitness stood at 0.0455.

For A111U A120G A145C C169U U176C, the reverse-splicing fitness was determined as 0.0453.

As to A111U A120G A145U C150G C169U U176A, the reverse-splicing fitness was 0.0147.

For A111U A120G A145U C150G C169U U176G, the reverse-splicing fitness was 0.00433.

As for A111U A120G A145U C150G C169U U176C, the reverse-splicing fitness was 0.0151.

Turning to A111U A120C A145G C150U C169U, the reverse-splicing fitness was found to be 0.148.

For the variant A111U A120C A145G C150U C169G, the reverse-splicing fitness is 0.00992.

Regarding A111U A120C C150G C169A U176C, the reverse-splicing fitness came to 0.0104.

As to A111U A120C C150G C169A U176G, the reverse-splicing fitness stood at 0.00573.

Take A111U A120C C150G C169A U176A: the reverse-splicing fitness worked out at 0.00901.

Consider A111U A120G A145C C150A U176G, for which the reverse-splicing fitness amounted to 0.00407.

For the variant A111U A120G A145C C150A U176C, the reverse-splicing fitness turned out to be 0.0112.

As for A111U A120G A145C C150A U176A, the reverse-splicing fitness was 0.00785.

As for A111U A120G A145U C150U C169A, the reverse-splicing fitness was found to be 0.0657.

On to A111U A120G A145U C150U C169U, for which the reverse-splicing fitness was 0.105.

On to A111U A120G A145U C150U C169G, for which the reverse-splicing fitness worked out at 0.129.

On to A111U A120C A145U C150G U176C, for which the reverse-splicing fitness worked out at 0.0375.

Turning to A111U A120C A145U C150G U176A, the reverse-splicing fitness turned out to be 0.0175.

For the variant A111U A120C A145U C150G U176G, the reverse-splicing fitness amounted to 0.00473.

With A111U A120G A145C C150U C169U U176C, the reverse-splicing fitness was determined as 0.0209.

Regarding A111U A120G A145C C150U C169U U176A, the reverse-splicing fitness came to 0.0278.

For the variant A111U A120G A145C C150U C169U U176G, the reverse-splicing fitness came out at 0.00469.
